Experimental data taken from patent US20170283484A1 (UNITED KINGDOM RESEARCH AND INNOVATION, published 2017).
Like-named read-outs stand apart in the source and are kept apart here.

Assays:
[1] = molecular target: HCV E2 envelope glycoprotein (hepatitis C virus, UniProt P27958 384-746); test: ELISA of E2 on AP33 alanine mutants
[2] = molecular target: T1, AP33 antibody (wild type mouse monoclonal); test: SPR, B2.1A scFv amine-coupled to CM4 chip, AP33 injected, single-cycle kinetics
T1 construct: also called WT AP33; Ab1

[3] = molecular target: T1, AP33 antibody (wild type mouse …)
[4] = molecular target: T1, AP33 antibody (wild type mouse …); test: SPR, B2.1A scFv amine-coupled to CM5 chip, AP33 injected, single-cycle kinetics
AP33 light-chain alone = molecular target: T2, AP33 light-chain alone (Mus musculus (Mouse), UniProt P01661 21-131); test: Ab2 binding screen
T2 construct: also called AP33 LC; LC

[5] = molecular target: T1, AP33 antibody (wild type mouse …); test: Ab2 binding screen

HCV E2 envelope glycoprotein, sequence (P27958 384-746 limits assumed): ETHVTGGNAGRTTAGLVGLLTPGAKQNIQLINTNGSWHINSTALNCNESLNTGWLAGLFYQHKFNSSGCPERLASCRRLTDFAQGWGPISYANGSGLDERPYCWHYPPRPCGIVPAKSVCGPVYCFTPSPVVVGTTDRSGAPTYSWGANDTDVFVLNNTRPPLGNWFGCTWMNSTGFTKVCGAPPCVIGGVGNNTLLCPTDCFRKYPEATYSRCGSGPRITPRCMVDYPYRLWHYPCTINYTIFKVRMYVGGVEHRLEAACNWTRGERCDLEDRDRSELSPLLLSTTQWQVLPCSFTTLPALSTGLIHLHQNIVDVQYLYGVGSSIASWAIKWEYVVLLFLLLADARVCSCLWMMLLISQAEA

B1: AP33 mutant YH50A (antibody, V domains shown)
VH: EVQLQESGPSLVKPSQTLSLTCSVTGDSITSGYWNWIRKFPGNKLEYMGAISYSGSTYYNLSLRSRISITRDTSKNQYYLQLNSVTTEDTATYYCALITTTTYAMDYWGQGTSVTVS
VL: NIVLTQSPVSLAVSLGQRATISCRASESVDGYGNSFLHWFQQKPGQPPKLLIYLASNLNSGVPARFSGSGSRTDFTLTIDPVEADDAATYYCQQNNVDPWTFGGGTKLEIK
- reduction of binding relative to WT AP33 [1]: 90%

B2: AP33 mutant YH100A (antibody, V domains shown)
VH: EVQLQESGPSLVKPSQTLSLTCSVTGDSITSGYWNWIRKFPGNKLEYMGYISYSGSTYYNLSLRSRISITRDTSKNQYYLQLNSVTTEDTATYYCALITTTTAAMDYWGQGTSVTVS
VL: NIVLTQSPVSLAVSLGQRATISCRASESVDGYGNSFLHWFQQKPGQPPKLLIYLASNLNSGVPARFSGSGSRTDFTLTIDPVEADDAATYYCQQNNVDPWTFGGGTKLEIK
- reduction of binding relative to WT AP33 [1]: 90%

B3: B2.1A scFv (scFv)
scFv: DANSQVQLQESGTELVKPGASVKLSCKASGYTFTNYWMHWVKQRPGQGLEWIGEINPSDGHTNYNEKFKSKATLTVDKSSSTAYMQLSSLTSEDSAVYYCARPWAFGNYGAWFAYWGQGTLVTVSAGGSGGSGGGGSGGGGSGGGASDIVMTQSPKFMSTSVGDRVSITCKASQNVRTAVAWYQQKPGQSPKALIYLASSRHTGVPDRFTGSGSGTDFTLTISNVQSEDLADYFCLQHWNYPYTFGGGTKLEIKSRHHHHHH
notes: also called single-chain variable fragment (scFv) of B2.1A; Ab2
- Kd [2]: 20.7 nM
- koff [2]: 0.000243 s⁻¹
- kon [2]: 11800 M⁻¹ s⁻¹
- Kd [3]: 8 nM
- koff [3]: 0.00039 s⁻¹
- kon [3]: 48700 M⁻¹ s⁻¹
- Kd [4]: 28.6 nM
- koff [4]: 0.000321 s⁻¹
- kon [4]: 11200 M⁻¹ s⁻¹

B4: B2.1A antibody (antibody, V domains shown)
VH: QVQLQESGTELVKPGASVKLSCKASGYTFTNYWMHWVKQRPGQGLEWIGEINPSDGHTNYNEKFKSKATLTVDKSSSTAYMQLSSLTSEDSAVYYCARPWAFGNYGAWFAYWGQGTLVTVSA
VL: DIVMTQSPKFMSTSVGDRVSITCKASQNVRTAVAWYQQKPGQSPKALIYLASSRHTGVPDRFTGSGSGTDFTLTISNVQSEDLADYFCLQHWNYPYTFGGGTKLEIKR
notes: also called anti-Id B2.1A; Ab2
- binding result (AP33 light-chain alone): no binding
- binding result [5]: binds
